Measured values from the RNAGym collection of RNA variant scans (doi:10.1073/pnas.2313332121).
This sample holds only a part of the variants without activity.

B1: TPR 5TU (parent)
chain: GGAUCUUCUCGAUCUAACAAAAAAGACAAAUCUGCCACAAAGCUUGAGAGCAUCUUCGGAUGCAGAGGCGGCAGCCUUCGGUGGCGCGAUAGCGCCAACGUUCUCAACUAUGACACGCAAAACGCGUGCUCCGUUGAAUGGAGUUUAUCAUG

Variants of: B1
Experiment: polymerase ribozyme fitness, log enrichment relative to wild type (log ratio); higher = more active; in vitro selection for triplet polymerase activity
How it was run: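 Frozen incubation at −7 °C formed the core of a single, triplicate in vitro selection round applied to PCR-built, transcribed mutant libraries of each subunit of a heterodimeric triplet polymerase ribozyme. Extended constructs were gel-excised, captured with streptavidin beads and amplified by RT-PCR, and input and output libraries were Illumina-sequenced with a filter of ≥10 input reads and ≥1 read per output. Fitness is the logarithm of genotype enrichment relative to wild-type enrichment, with inverse-variance-weighted replicate averaging, and the logarithm is base 2.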

Variant	polymerase ribozyme fitness (log ratio)
C10U A17G A23C A24C A26G U31G A39U U44A C54G C57G C79A C96U G124A	≤ -4.2
A12C U53A U56A	-2.64
A12G U44A A52G C85A C118U	≤ -4.2
G11C G92U	-1.84
A12C G94A G152C	-3.98
C10G A19U C32A C93U U127A	≤ -4.2
A12C A119G	-0.0231
A12C C105G	-2.6
G11A A20U C54A C87G G100C U145A	≤ -4.2
A12C A24G G50C C72U C87G U111C	≤ -4.2
C10G A17U A37C C93U	-4.18
C10U U31A C57A U61A U77C C95A C99U C116U	≤ -4.2
C10U A89U C95U	-4.15
C10U C32U C35U A49C C51A C87A G141A	≤ -4.2
G11C U31A A40U	-0.204
A12G A37C G86A C95A	≤ -4.2
C10G A91C C95U C103G C116G	≤ -4.2
C10A A39U U55A C57A U90G G92A	≤ -4.2
A12G U15G A26G C93A A115G	≤ -4.2
C10G C87U	-3.38
A12G A23G U31A C35U U56A	-3.98

Variant	polymerase ribozyme fitness (log ratio)
G11U A16G C36A A49C C95G C118U G133U	≤ -4.2
A12C A19C G58C G62A C63U A97G	≤ -4.2
G11C C54U G62A A121U	-2.2
A12C A21G A122G G140U	-4.13
A12G A16G A23U C38U C87U G141C G152A	≤ -4.2
A12C A41G C87A A89C U144A	≤ -4.2
A12G G143U	-2.62
A12C U102C A138C	≤ -4.2
G11A A16U A21U A60U C63A C85A G126U	≤ -4.2
C10A U45A C69U C72U	≤ -4.2
A12G C38U G86A C87U A121C G136A	≤ -4.2
C10A U31G G50A G58C C96A C116U	≤ -4.2
G11C C93U U101G G128U	-3.85
A12G A16G U31A C125A U145C	-0.993
C10U C32A C38G C43A G83A A91U C95G A97U U144G	≤ -4.2
C10G C79G	≤ -4.2
C10G A26U C43A G94C U127C G143U	≤ -4.2
C10G A21U C87G A91U C95A	≤ -4.2
C10G A23U U56A C93U	≤ -4.2
G11C A37C U82G C85G C105U C116G	≤ -4.2
G11C C38U G65U A122U	≤ -4.2

Variant	polymerase ribozyme fitness (log ratio)
C10A A52C C63U A91G A113U	≤ -4.2
C10U C32G A39U U55A C95G C96A C149U	≤ -4.2
C10A A22U A39U C85U G126A	≤ -4.2
A12C U56A G88U	-3.41
A12G A24G A37C C87G A120G U139G	-4.13
A12G A19C A29U C129G	≤ -4.2
A12C A52G C93U U101C C105U	-2.54
G11U U31C U53A A66G C85A C87A	≤ -4.2
C10G G11U A28C A37G G46U G88U C96U U102G C105U	≤ -4.2
G11U G83A C96U	-0.589
G11A A23C A29C A30U C36U U44A A73U G81A C125U G143U	≤ -4.2
A12G C36A U55G G71A C96G C116A U134G	≤ -4.2
C10A A24C C51U G141U	≤ -4.2
A12C A30C A60G C75G G86U U90G A97C	≤ -4.2
C10G A20U A28U C35U C51G A64C G84U C123U	≤ -4.2
C10U U13C A52U C96A	-3.64
G11C A21G A28U C38U C87A G133C U144G A150C	≤ -4.2
C10U A30U U33G C51A A64C A91G C118U U145C	≤ -4.2
C10U C38A G70A C93U A97U C116G U148G	≤ -4.2
C10U G58A U109G	-3.43
A12G A19G A41C C95U G126A	-1.94

Variant	polymerase ribozyme fitness (log ratio)
C10U U15C A39U G48C C76A C85G G88A U90G G140U	≤ -4.2
A12G A41G	0.519
A12C A21C C35A G58U U135G	-4.1
G11U A26G C54U A142C	≤ -4.2
C10U G48A G86A G88A C95A	≤ -4.2
A12G U33G C36A G86U A110C C118U C123U	≤ -4.2
G11C C36G U56A C57U G59A C96G	≤ -4.2
A12G A52C U55A C118G A120U	-1.84
C10U A60G	-2.5
A12C G59A C75U C114U A150C	≤ -4.2
C10A C32G U139G	≤ -4.2
A12G G59A A66C C79A C108U C116A	≤ -4.2
C10G C116A	-2.96
G11C A16U G42U A113C	≤ -4.2
A12G C54A U55G G58C G92A A97U C125G G128U U135C A138G U139A U145G	≤ -4.2
C10U A23G U82G C95A	≤ -4.2
G11A A12U A52G U53C A91U	-4.08
C10U A16U G34U A39G G94A G141C	-3.56
C10A A20G C38A U55A A60C	≤ -4.2
C10U G67C	≤ -4.2
